For 99 substances, amyloid nucleation score results are on record in the supplement of paper PMC12042874.

± gives the uncertainty stated by the source.

A short description of the data set: amyloid nucleation score (Sup35N fusion, yeast selection) (log enrichment); library NNK3; higher = more nucleation; inactive = no reads after selection. Summed up: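 Sup35N was fused to peptides of 20 random codons and expressed in psi-negative yeast, which were induced with 100 μM copper sulfate for 24 hours and then grown on medium lacking adenine and uracil for 7 days at 30°C. Plasmid inserts from input and output were sequenced on Illumina. The nucleation score is the DiMSum log enrichment of output over input reads, centred on the mode score of non-aggregating sequences. Sequences with under 100 input reads were left out, and random libraries had three technical output replicates.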
With VLMISCTS, the amyloid nucleation score result is “inactive”.
As for VLMSYQVCV, the amyloid nucleation score result is “inactive”.
The figure for VLNSIGPYVMTKR is 0.139 ± 0.63; for VLPENIILNFIQMSDNRFLL it is 1.8 ± 0.072; for VLQLDL it is “inactive”.
Next, VLRAGELLF: “inactive”; VLRSNHFD: “inactive”.
Substance VLSFLPCGLIPIISVALWCC showed an amyloid nucleation score of 1.17 ± 0.099.
On to VLTSYGRNRH, for which the amyloid nucleation score result was “inactive”.
VMFCFKRHLL yielded an amyloid nucleation score of 0.922 ± 0.15.
The substance VMGDSVRIAELQIWAEINGL displayed an amyloid nucleation score of 1.07 ± 0.14.
For VMHMWCHQGRVWFSTSGFLG, the amyloid nucleation score was 0.35 ± 0.19.
In the case of VMNHLRRTNLVPTSAVNAYN, the amyloid nucleation score result was “inactive”.
Consider VMQQYLYNLCCL, for which the amyloid nucleation score turned out to be 2.83 ± 0.052.
In turn, VMRFHVLKVLACCVNGGFDL displayed an amyloid nucleation score of 2.73 ± 0.072.
With VMSCYAYYFTTRQDFPFLWD, the amyloid nucleation score result is “inactive”.
For VMSGAKPARSLFLSTLQHIS, the amyloid nucleation score entry was “inactive”.
In the case of VMSSMWLAGQTWLSYNCICD, the amyloid nucleation score worked out at 2.35 ± 0.075.
Turning to VMVRTNMCR, the amyloid nucleation score entry is “inactive”.
Next, VMWPIGSCDRE: “inactive”; VNDPEAR: -0.391 ± 1.2; VNDSAGVKLAVDCERTRKGG: -0.5 ± 0.98.
For VNDVLIRKCLAMESNVNEAI, the amyloid nucleation score entry is “inactive”.
Turning to VNFILSTAHLL, the amyloid nucleation score entry was “inactive”.
Substance VNIRLMVKIRFDSVLRILPY yielded an amyloid nucleation score of 0.509 ± 0.31.
Next, VNLFHSYCMAISRIITISSL: “inactive”.
On to VNSMSC, for which the amyloid nucleation score result was “inactive”.
On to VNWHNIKVTEDVKVG, for which the amyloid nucleation score result is “inactive”.
On to VNYDSVLYLVFLCIYLHKNR, for which the amyloid nucleation score entry was “inactive”.
VPSNLGKPHMCRRSRDYFTA: the amyloid nucleation score result is “inactive”.
For the substance VPSVYKKRWWYHKPWHNRHV, the amyloid nucleation score result is “inactive”.
With VPTVLDRFDMMHVSEYRDGA, the amyloid nucleation score entry is “inactive”.
For the substance VQCRSHWHWRRPGPEARSVW, the amyloid nucleation score entry is “inactive”.
Turning to VQFLRFQVHELFSRPFIA, the amyloid nucleation score entry was “inactive”.
On to VQGKALAS, for which the amyloid nucleation score result was “inactive”.
Take VQGSTIGG: the amyloid nucleation score result is “inactive”.
VQGTTVDMDYYFTVSCLHAK: the amyloid nucleation score result was “inactive”.
In the case of VQKSMR, the amyloid nucleation score entry was “inactive”.
For the substance VQPVGSSKGVRGVE, the amyloid nucleation score was determined as 0.983 ± 0.2.
As to VQWSVSFLSVVGVPWYRRLV, the amyloid nucleation score entry is “inactive”.
Regarding VRCVVGITVFGIHERVTSER, the amyloid nucleation score was 0.169 ± 0.61.
For VRDIRAIL, the amyloid nucleation score is -0.551 ± 1.1.
With VRFTHKCSLG, the amyloid nucleation score entry is “inactive”.
As for VRGGHSTTGI, the amyloid nucleation score result was “inactive”.
For VRGYLYRCKAGSLACHPDPG, the amyloid nucleation score entry is “inactive”.
Next, VRIMCMSWIVVWHYMC: “inactive”.
Turning to VRLRDLN, the amyloid nucleation score result is “inactive”.
For the substance VRLRVEYAKSEWKMIFGEFY, the amyloid nucleation score result is “inactive”.
Next, VRLSRAVILLAVIHLRWGLT: “inactive”; VRLYADNNLSAITKLLCPKN: “inactive”.
In the case of VRMFRDLLYPAEYLS, the amyloid nucleation score entry was “inactive”.
VRNEYACNCTYMRIARLDE: the amyloid nucleation score worked out at 0.319 ± 0.29.
In the case of VRNLVHHPYAFL, the amyloid nucleation score result was “inactive”.
Consider VRNRWA, for which the amyloid nucleation score entry was “inactive”.
The entry for VRRVQSLRPPAHVSLAPYRA is “inactive”; for VRSTFNCITLRTLAIRSFYH it is “inactive”.
Take VRTVFCNIFFEFRGGSRNWA: the amyloid nucleation score amounted to 1.79 ± 0.11.
For the substance VRVILNAGLKNGRKVLNLGR, the amyloid nucleation score entry is “inactive”.
In the case of VRVLDWNLMHFFFSYKRFLQ, the amyloid nucleation score was -0.094 ± 0.25.
On to VRVLMSL, for which the amyloid nucleation score is -0.087 ± 0.45.
For the substance VRWWWLNF, the amyloid nucleation score result was “inactive”.
On to VRYFSKSGGRNPNVGRVVPV, for which the amyloid nucleation score entry was “inactive”.
On to VRYSPDRKFGETCIKQAVMT, for which the amyloid nucleation score entry is “inactive”.
In the case of VSAAYLRTVRQ, the amyloid nucleation score result was “inactive”.
In the case of VSEFFFP, the amyloid nucleation score entry was “inactive”.
For VSEMCIMSCTHIVGDCSWIR, the amyloid nucleation score result was “inactive”.
Next, VSFEYTGEYLCSNVRATDLL: 0.366 ± 0.69; VSGQKVSCMDE: “inactive”; VSIKSRLRCLSVVQDNSRCV: “inactive”.
Next, VSLGVNRGG: “inactive”.
Turning to VSLVWDMHWHSYRVSSELCR, the amyloid nucleation score result was “inactive”.
Take VSNHSIDIGRLRLGFTC: the amyloid nucleation score entry is “inactive”.
VSNLLIKVTRHASYDQSS: the amyloid nucleation score entry is “inactive”.
Regarding VSRPS, the amyloid nucleation score result was “inactive”.
VSRVTRLNKFISVVHDSCEV: the amyloid nucleation score result was “inactive”.
In the case of VSSRECMLRPLPDTKTRLAA, the amyloid nucleation score entry was “inactive”.
VSSSSEVHCYSSFMYISKSP showed an amyloid nucleation score of 0.824 ± 0.16.
Take VSTWVQTPGTHMLGVIVYFE: the amyloid nucleation score result is “inactive”.
For VSYCAWSFEG, the amyloid nucleation score result was “inactive”.
The entry for VTAFATNKVC is “inactive”; for VTAFCWGLQRIVGIECSMLE it is “inactive”.
Consider VTFIRQGLEIVSVVLSICKE, for which the amyloid nucleation score result is “inactive”.
With VTFMIDFRASWALFHDRWWC, the amyloid nucleation score result is “inactive”.
Regarding VTFSCLYVFFYRQVIRCFGM, the amyloid nucleation score was found to be 0.059 ± 0.26.
Consider VTGIIRRIYLLF, for which the amyloid nucleation score entry was “inactive”.
Regarding VTHLPTDIGMC, the amyloid nucleation score amounted to 0.894 ± 0.12.
For VTLRCNGDMVYHYLPCGVLR, the amyloid nucleation score result is “inactive”.
On to VTMFLGQWCSHSIVAMCIEG, for which the amyloid nucleation score result is “inactive”.
On to VTMVSYYTCGEHNKVNILMQ, for which the amyloid nucleation score worked out at 1.42 ± 0.097.
Turning to VTSESSSMGLTLSF, the amyloid nucleation score entry was “inactive”.
For VTSPFTPSI, the amyloid nucleation score is -0.336 ± 0.63.
The entry for VTVEALILNN is “inactive”; for VTVLQM it is “inactive”.
VTVSYIVNGMTSLFQVDVAS: the amyloid nucleation score entry was “inactive”.
The entry for VTYNTSSGRVYGTGHNWFQG is “inactive”.
As for VVATTLEFMWRHMGTYFWGI, the amyloid nucleation score entry was “inactive”.
Regarding VVCLYILHIPCSVRRHTLAD, the amyloid nucleation score result is “inactive”.
Take VVDGSRCPPLSLSSDMWAR: the amyloid nucleation score entry is “inactive”.
Take VVEGSILACVNRGGKKYYDC: the amyloid nucleation score entry is “inactive”.
